Data taken from IntAct's records for PubMed 16000169.

B1: DNA polymerase delta subunit 3 (Homo sapiens), Q15054 (parent)
chain: MADQLYLENIDEFVTDQNKIVTYKWLSYTLGVHVNQAKQMLYDYVERKRKENSGAQLHVTYLVSGSLIQNGHSCHKVAVVREDKLEAVKSKLAVTASIHVYSIQKAMLKDSGPLFNTDYDILKSNLQNCSKFSAIQCAAAVPRAPAESSSSSKKFEQSHLHMSSETQANNELTTNGHGPPASKQVSQQPKGIMGMFASKAAAKTQETNKETKTEAKEVTNASAAGNKAPGKGNMMSNFFGKAAMNKFKVNLDSEQAVKEEKIVEQPTVSVTEPKLATPAGLKKSSKKAEPVKVLQKEKKRGKRVALSDDETKETENMRKKRRRIKLPESDSSEDEVFPDSPGAYEAESPSPPPPPSPPLEPVPKTEPEPPSVKSSSGENKRKRKRVLKSKTYLDGEGCIVTEKVYESESCTDSEEELNMKTSSVHRPPAMTVKKEPREERKGPKKGTAALGKANRQVSITGFFQRK

Variants of: B1
Conditions: with pcna_human PCNA

Row | effect of a mutation on the interaction | Variant
1 | disrupting interaction | MADQLYLENIDEFVTDQNKIVTYKWLSYTLGVHVNQAKQMLYDYVERKRKENSGAQLHVTYLVSGSLIQNGHSCHKVAVVREDKLEAVKSKLAVTASIHVYSIQKAMLKDSGPLFNTDYDILKSNLQNCSKFSAIQCAAAVPRAPAESSSSSKKFEQSHLHMSSETQANNELTTNGHGPPASKQVSQQPKGIMGMFASKAAAKTQETNKETKTEAKEVTNASAAGNKAPGKGNMMSNFFGKAAMNKFKVNLDSEQAVKEEKIVEQPTVSVTEPKLATPAGLKKSSKKAEPVKVLQKEKKRGKRVALSDDETKETENMRKNGGRIKLPESDSSEDEVFPDSPGAYEAESPSPPPPPSPPLEPVPKTEPEPPSVKSSSGENKRKRKRVLKSKTYLDGEGCIVTEKVYESESCTDSEEELNMKTSSVHRPPAMTVKKEPREERKGPKKGTAALGKANRQVSITGFFQRK [K320N;R321G;R322G]
